Consider one molecule from article PMC11102864 (Nature Structural & Molecular Biology, 2024).

This assay has as its target Arp3 (subunit of the human Arp2/3 complex, activated conformation at the branch) (human, UniProt P61158 1-418). In words: cryo-EM structure; actin branches reconstituted from Arp2/3, VVCA, SPIN90, actin and capping protein, then 1.9 uM full-length cortactin and 10 uM phalloidin; 20 mM HEPES pH 7.5, 50 mM KCl, 1 mM EGTA, 1 mM MgCl2, 0.2 mM ATP, 1 mM DTT; room temperature; overall resolution about 3.3 Å. The conditions noted are these: both partners purified.

B1: Full-length mouse cortactin (natural protein)
chain: not shown
notes: cortactin, mouse, residues 1-546, UniProt Q60598; only residues 21-79 (NtA) and 80-116 (first central repeat) were built in the model; also called full-length cortactin
As for B1, the binding result was “binds”.
